Data on 3 molecules can be found in US20210324102A1 (ACROIMMUNE BIOTECH, published 2021).

Experiment [1] concerns the target human CD38 on cells (CHO-hCD38 / wild-type, and human tumor cell lines with positive CD38 expression) (human, UniProt P28907 1-300). The experiment can be described thus: cell-based or functional assay.
Experiment [2] concerns the target T1, cynomolgus macaque CD38 on CHO cells (CHO-cynomolgus CD38) (cynomolgus macaque, UniProt Q5VAN0 1-301).
T1 construct: whole, on cells; also called CHO/mkCD38; mkCD38
The experiment can be described thus: flow cytometry on CHO-cynomolgus CD38 cells. For orientation: Flow cytometry measures light scatter and fluorescence of single cells or particles in a stream.

Experiment [3] has as its target T2, recombinant cynomolgus macaque CD38-his protein (Sino Biological Inc.) (cynomolgus macaque, UniProt Q5VAN0 44-301, limits assumed).
T2 construct: Bought protein; also called recombinant cynomolgus macaque CD38 protein; cynomolgus macaque CD38 protein; not shown: his tag
The experiment can be described thus: direct ELISA, plate coated with recombinant cynomolgus macaque CD38-his protein. On the technique in general: In an ELISA, binding on a coated surface is turned into a signal by an enzyme label.

B1: Daratumumab (antibody, V domains shown)
VH: EVQLLESGGGLVQPGGSLRLSCAVSGFTFNSFAMSWVRQAPGKGLEWVSAISGSGGGTYYADSVKGRFTISRDNSKNTLYLQMNSLRAEDTAVYFCAKDKILWFGEPVFDYWGQGTLVTVSS
VL: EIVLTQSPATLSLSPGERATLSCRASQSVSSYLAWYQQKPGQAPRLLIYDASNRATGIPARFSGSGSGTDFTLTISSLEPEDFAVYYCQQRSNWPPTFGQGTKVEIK
B1: in experiment [1], the “EC50 of CDC activity, Daudi target cells, 10% rabbit serum” value (“EC50 of CDC activity … 10% rabbit serum” for short) was found to be 0.1 µg/mL.

B2: murine monoclonal antibody m29 (antibody, mouse IgG2b, V domains shown)
VH: QVQLQQSVSELRSPGSSVKLSCKDFDSEVFPTSYMSWVRQKPGHGFEWIGDILPNIGRIFYGEKFEDKAKLDADTVSNTAYLELTSLSSEDSAIYYCAREAYGSILGYWGQGTLVAVSA
VL: DIVMTQTPLSLPVGLGDQASISCRSSQSLLHSNGNTYLHWYLQKPGQSPKLLIYKVSNRFSGVPDRFSGSGSGTDFTLKISRVEAEDLGVYFCSQSSHLPWTFGGGTKLEIK
notes: also called mouse monoclonal antibody m29; m29 monoclonal antibody
Consider B2, for which the binding result in experiment [2] is recorded as “binds”. The “EC50 of CDC activity … 10% rabbit serum” value in experiment [1] was roughly 0.03 µg/mL.

B3: human-mouse chimeric antibody ch29G (antibody, V domains shown)
VH: B2 VH
VL: B2 VL
notes: not shown: human IgG1 heavy chain constant region; human kappa light chain constant region (C-domain)
Take B3: the binding result in experiment [3] and in experiment [2] was “binds” each time. Besides, the “EC50 of CDC activity … 10% rabbit serum” value in experiment [1] is roughly 0.03 µg/mL.
